The values that follow come from article doi:10.64898/2025.12.30.697126 (bioRxiv, 2025).

The assay deals with single-chain H2B-H2A.Z (human). Kind of assay: crystal structure.

B1: Peptide SRCAP_(531-560) (peptide)
peptide: SEDAQSQSQADEEEEDDDFGVEYLLARDEE
As for B1, the binding result is recorded as “binds”.
